One molecule from article PMC10165364, “Pathological variants in TOP3A cause distinct disorders of mitochondrial and nuclear genome stability” can be followed below.

Positions count from the first letter of the chain named.

What all share (settings): protein: recombinant; tags: N-terminal TEV-cleavable 6xHis, cleaved; label: 5' 32P; single strand
Series [1] addresses T1, TOP3A Leu37Val (Homo sapiens, UniProt Q13472 16-934, L37V).
T1 sequence: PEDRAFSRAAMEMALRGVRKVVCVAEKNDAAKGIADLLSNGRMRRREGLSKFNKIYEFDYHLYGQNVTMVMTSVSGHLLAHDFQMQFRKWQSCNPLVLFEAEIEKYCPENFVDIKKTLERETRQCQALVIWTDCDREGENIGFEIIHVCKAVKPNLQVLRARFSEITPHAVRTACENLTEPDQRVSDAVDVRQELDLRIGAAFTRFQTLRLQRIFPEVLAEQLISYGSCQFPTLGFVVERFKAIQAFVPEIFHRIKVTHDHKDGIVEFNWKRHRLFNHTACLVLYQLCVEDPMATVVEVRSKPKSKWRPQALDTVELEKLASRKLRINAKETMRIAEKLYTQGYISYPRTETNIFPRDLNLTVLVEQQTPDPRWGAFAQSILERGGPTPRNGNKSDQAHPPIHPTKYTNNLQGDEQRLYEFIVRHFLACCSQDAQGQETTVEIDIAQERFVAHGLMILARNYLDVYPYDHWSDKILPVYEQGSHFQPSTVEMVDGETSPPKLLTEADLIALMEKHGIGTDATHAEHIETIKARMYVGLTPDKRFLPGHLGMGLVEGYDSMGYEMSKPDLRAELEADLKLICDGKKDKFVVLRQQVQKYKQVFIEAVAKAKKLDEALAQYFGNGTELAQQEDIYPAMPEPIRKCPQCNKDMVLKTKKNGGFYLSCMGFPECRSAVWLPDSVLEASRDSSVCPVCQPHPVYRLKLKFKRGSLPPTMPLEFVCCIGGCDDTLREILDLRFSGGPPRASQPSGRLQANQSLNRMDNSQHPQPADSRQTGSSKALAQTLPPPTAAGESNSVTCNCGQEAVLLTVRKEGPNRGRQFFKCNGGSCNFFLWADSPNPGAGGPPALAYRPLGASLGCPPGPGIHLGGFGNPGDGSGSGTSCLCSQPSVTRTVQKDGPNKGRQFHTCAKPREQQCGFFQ
In words: EMSA; up to 250 fmol protein; 25 mM HEPES pH 7.5, 70 mM NaCl, 100 ug/ml BSA, 1 mM DTT, 10% glycerol; 10 fmol oligo, 0-250 fmol TOP3A in 20 ul; 37 C 15 min, then ice; 8% native PAGE in 0.5x TBE at 4 C. (Mobility shift assays separate free from complexed probe on a gel.)

Series [2] deals with T2, TOP3A Met575Val (Homo sapiens, UniProt Q13472 16-934, M575V).
T2 sequence: T1 sequence with V22L, M560V
The description is as above.

In series [3] the target is T3, TOP3A Ser810* (Homo sapiens, UniProt Q13472 16-809).
T3 sequence: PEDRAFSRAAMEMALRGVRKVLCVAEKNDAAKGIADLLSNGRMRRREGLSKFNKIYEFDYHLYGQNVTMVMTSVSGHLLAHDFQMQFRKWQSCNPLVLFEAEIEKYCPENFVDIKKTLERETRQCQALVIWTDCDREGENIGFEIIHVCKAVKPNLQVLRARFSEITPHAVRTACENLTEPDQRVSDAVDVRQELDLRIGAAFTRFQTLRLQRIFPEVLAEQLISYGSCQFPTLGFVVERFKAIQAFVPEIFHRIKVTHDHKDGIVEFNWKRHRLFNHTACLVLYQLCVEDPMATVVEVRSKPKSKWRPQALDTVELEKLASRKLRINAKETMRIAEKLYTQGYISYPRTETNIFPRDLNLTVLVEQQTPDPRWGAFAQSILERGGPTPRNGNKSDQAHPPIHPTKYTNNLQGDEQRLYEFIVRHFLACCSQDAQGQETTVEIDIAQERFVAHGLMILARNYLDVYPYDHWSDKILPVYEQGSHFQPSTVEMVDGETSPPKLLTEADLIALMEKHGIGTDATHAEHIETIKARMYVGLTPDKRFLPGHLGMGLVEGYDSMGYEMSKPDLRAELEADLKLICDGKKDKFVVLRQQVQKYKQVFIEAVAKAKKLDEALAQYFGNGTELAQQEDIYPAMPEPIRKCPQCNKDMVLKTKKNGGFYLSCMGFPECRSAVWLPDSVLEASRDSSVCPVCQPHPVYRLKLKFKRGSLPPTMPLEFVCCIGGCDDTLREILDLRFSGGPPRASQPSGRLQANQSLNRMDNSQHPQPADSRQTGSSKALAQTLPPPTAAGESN
In words: EMSA; comparable to WT; 25 mM HEPES pH 7.5, 70 mM NaCl, 100 ug/ml BSA, 1 mM DTT, 10% glycerol; 10 fmol oligo, 0-250 fmol TOP3A in 20 ul; 37 C 15 min, then ice; 8% native PAGE in 0.5x TBE at 4 C.

B1: EMSA substrate 80-mer (ssDNA)
DNA: ACCACATTAACAACATAAAACCCTCATTCACACGAGAAAACACCCTCATGTTCATACACCTATCCCCCATTCTCCTCCTA
Turning to B1, the binding result was “no binding” in series [1], “no binding” in series [2] and “binds” in series [3].
